From article PMC9313494 come the findings set out here.

The test has as its target Lys-Nle peptide. As to the kind of experiment: SPR; Lys-Nle peptide immobilised via its terminal thiol group on a CM5 chip (1123.9 RU); BMP-2 flown at increasing concentrations in PBS-T at 50 µL/min; regeneration with Gly-HCl pH 1.5; nonfunctionalized reference channel; Langmuir fit (BIAevaluation). (SPR reads the build-up and loss of mass on a sensor chip optically.)

B1: bone morphogenetic protein-2 (BMP-2) (ligand)
chain: QAKHKQRKRLKSSCKRHPLYVDFSDVGWNDWIVAPPGYHAFYCHGECPFPLADHLNSTNHAIVQTLVNSVNSKIPKACCVPTELSAISMLYLDENEKVVLKNYQDMVVEGCGCR
B1 gave an equilibrium dissociation constant (Kd) of 36.6 nM.

As usually defined, the Kd is the concentration at which binding is half-saturated. A low value points to tighter binding.
